# Results as given in paper PMC8533642 (Journal of medicinal chemistry, 2021).
# Square brackets hold non-standard residues; d marks the D form. dPhe(4-I) = N[C@H](Cc1ccc(I)cc1)C(=O)O; 2Nal = N[C@@H](Cc1ccc2ccccc2c1)C(=O)O; d2Nal = N[C@H](Cc1ccc2ccccc2c1)C(=O)O
# Legend:
# [1] = target: mouse melanocortin-1 receptor (mouse) (UniProt Q01727)
# [2] = target: mouse melanocortin-4 receptor (mouse) (UniProt P56450)
# [3] = target: mouse melanocortin-3 receptor (mouse) (UniProt P33033)
# [4] = target: mouse melanocortin-5 receptor (mouse) (UniProt P41149)
# [5] = target: mouse melanocortin-4 receptor (mouse) (UniProt P56450); remark: listed apart in the source
# [6] = target: mouse melanocortin-3 receptor (mouse) (UniProt P33033); remark: listed apart in the source
# Chain of mouse melanocortin-3 receptor (mouse) (P33033 whole entry): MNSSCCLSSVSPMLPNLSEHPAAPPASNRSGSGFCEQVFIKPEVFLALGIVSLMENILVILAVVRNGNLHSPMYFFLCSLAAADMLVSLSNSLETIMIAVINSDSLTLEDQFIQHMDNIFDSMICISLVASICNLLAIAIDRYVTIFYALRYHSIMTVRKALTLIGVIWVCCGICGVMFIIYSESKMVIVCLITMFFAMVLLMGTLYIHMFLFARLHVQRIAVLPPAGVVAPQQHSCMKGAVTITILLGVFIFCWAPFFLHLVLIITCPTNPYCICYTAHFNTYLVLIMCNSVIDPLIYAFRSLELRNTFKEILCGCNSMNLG
# Chain of mouse melanocortin-4 receptor (mouse) (P56450 whole entry): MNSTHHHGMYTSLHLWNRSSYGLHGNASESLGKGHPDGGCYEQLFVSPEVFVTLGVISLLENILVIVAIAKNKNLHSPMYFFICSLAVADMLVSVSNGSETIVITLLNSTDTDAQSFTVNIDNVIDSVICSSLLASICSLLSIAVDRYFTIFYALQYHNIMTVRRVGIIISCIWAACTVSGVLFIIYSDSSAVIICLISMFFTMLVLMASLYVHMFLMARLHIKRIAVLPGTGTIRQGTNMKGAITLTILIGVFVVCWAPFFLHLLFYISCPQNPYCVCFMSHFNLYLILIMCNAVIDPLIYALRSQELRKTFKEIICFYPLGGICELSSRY
# Chain of mouse melanocortin-5 receptor (mouse) (P41149 whole entry): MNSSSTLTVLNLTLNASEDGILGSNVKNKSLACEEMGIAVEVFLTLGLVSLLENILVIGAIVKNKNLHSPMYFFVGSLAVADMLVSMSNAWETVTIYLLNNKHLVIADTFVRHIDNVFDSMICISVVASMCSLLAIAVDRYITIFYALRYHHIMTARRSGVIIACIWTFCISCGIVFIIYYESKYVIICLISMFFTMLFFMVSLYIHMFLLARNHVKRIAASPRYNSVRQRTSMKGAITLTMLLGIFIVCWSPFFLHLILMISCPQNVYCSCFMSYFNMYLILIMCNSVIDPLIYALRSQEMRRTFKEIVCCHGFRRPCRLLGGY
# Chain of mouse melanocortin-1 receptor (mouse) (Q01727 whole entry): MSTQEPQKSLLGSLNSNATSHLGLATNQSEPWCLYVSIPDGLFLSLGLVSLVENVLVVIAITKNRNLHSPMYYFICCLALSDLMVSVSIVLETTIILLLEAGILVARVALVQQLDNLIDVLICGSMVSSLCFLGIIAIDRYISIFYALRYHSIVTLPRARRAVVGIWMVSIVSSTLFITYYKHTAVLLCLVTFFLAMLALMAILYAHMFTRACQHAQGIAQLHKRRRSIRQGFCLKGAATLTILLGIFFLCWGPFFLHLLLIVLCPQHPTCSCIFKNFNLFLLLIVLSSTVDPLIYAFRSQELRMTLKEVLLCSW
Substance,"% of maximal NDP-MSH response at 100 μM, cAMP AlphaScreen [1] [%]","% of maximal NDP-MSH response at 100 μM, cAMP AlphaScreen [2] [%]","% of maximal NDP-MSH response at 100 μM, cAMP AlphaScreen [3] [%]","% of maximal NDP-MSH response at 100 μM, cAMP AlphaScreen [4] [%]","pA2, antagonism of NDP-MSH at mMC4R, Schild analysis, cAMP AlphaScreen [5]","agonist EC50, cAMP AlphaScreen [2] [µM]","agonist EC50, cAMP AlphaScreen [3] [µM]","agonist EC50, cAMP AlphaScreen [4] [µM]","% receptor activation relative to NDP-MSH (partial agonist), cAMP AlphaScreen [1] [%]","apparent EC50 (partial agonist), cAMP AlphaScreen [1] [µM]","pA2, antagonism of NDP-MSH at mMC3R, Schild analysis, cAMP AlphaScreen [6]","agonist EC50, cAMP AlphaScreen [1] [µM]","antagonist Ki = 10^-(pA2), NDP-MSH at mMC4R, cAMP AlphaScreen [5] [nM]"
Ac-Phe(pI)-Nal(2’)-Phe(pI)-Arg-NH2 (peptide),60,,,,,,,,,,,,
Ac-DNal(2’)-Arg-Nal(2’)-DNal(2’)-NH2 (peptide),40,30,30,25,6.7,,,,,,,,
Ac-DNal(2’)-DNal(2’)-Nal(2’)-DLys-NH2 (peptide),45,,,,,> 100,> 100,> 100,,,,,
Ac-DPhe(pI)-Arg-DNal(2’)-DLys-NH2 (peptide),,,,,8.6,> 100,> 100,> 100,30,3.5,7.2,,
Ac-DPhe(pI)-Arg-DPhe(pI)-DNal(2’)-NH2 (peptide),,40,40,65,6.6,,,,,,6.3,1.1,
Ac-DNal(2’)-Arg-DNal(2’)-DLys-NH2 (peptide),,,,,8.2,> 100,> 100,> 100,30,6,,,
Ac-DPhe(pI)-Arg-DNal(2’)-DNal(2’)-NH2 (peptide),80,45,45,20,6.7,,,,,,6.1,,
Ac-[d2Nal]R[2Nal]R-NH2,,30,,,8.8,,> 100,> 100,,,,> 100,
Ac-DNal(2’)-DNal(2’)-Nal(2’)-Arg-NH2 (peptide),55,,,40,,> 100,> 100,,,,,,
Ac-DPhe(pI)-DNal(2’)-Trp-Arg-NH2 (peptide),,,,,5.6,> 100,> 100,> 100,,,,> 100,
Ac-[dPhe(4-I)]R[2Nal]R-NH2,25,25,,,,,> 100,> 100,,,7.8,,1
Ac-DPhe(pI)-DNal(2’)-DNal(2’)-Arg-NH2 (peptide),,,,,,> 100,> 100,0.23,,,,> 100,
Ac-DNal(2’)-Arg-DNal(2’)-Arg-NH2 (peptide),,,,,8.3,> 100,> 100,> 100,60,1,6.1,,
Ac-DPhe(pI)-DNal(2’)-Nal(2’)-Arg-NH2 (peptide),20,,,,5.8,> 100,> 100,0.8,,,,,
Ac-DPhe(pI)-DNal(2’)-DPhe(pI)-DLys-NH2 (peptide),,,,,,> 100,> 100,> 100,,,,> 100,
Ac-DNal(2’)-Arg-DNal(2’)-DNal(2’)-NH2 (peptide),,45,50,20,6.3,,,,85,5,5.7,,
Ac-DNal(2’)-DNal(2’)-DNal(2’)-Arg-NH2 (peptide),30,25,35,,< 5.5,,,0.13,,,< 5.5,,
Ac-[d2Nal][d2Nal]WR-NH2,45,60,35,45,< 5.5,,,,,,< 5.5,,
Ac-[dPhe(4-I)]R[2Nal][d2Nal]-NH2,55,,,,6.7,> 100,> 100,> 100,,,,,

# The next lines start with the values.
"% of maximal NDP-MSH response at 100 μM, cAMP AlphaScreen [1] [%]","% of maximal NDP-MSH response at 100 μM, cAMP AlphaScreen [2] [%]","% of maximal NDP-MSH response at 100 μM, cAMP AlphaScreen [3] [%]","% of maximal NDP-MSH response at 100 μM, cAMP AlphaScreen [4] [%]","pA2, antagonism of NDP-MSH at mMC4R, Schild analysis, cAMP AlphaScreen [5]","agonist EC50, cAMP AlphaScreen [2] [µM]","agonist EC50, cAMP AlphaScreen [3] [µM]","agonist EC50, cAMP AlphaScreen [4] [µM]","% receptor activation relative to NDP-MSH (partial agonist), cAMP AlphaScreen [1] [%]","apparent EC50 (partial agonist), cAMP AlphaScreen [1] [µM]","pA2, antagonism of NDP-MSH at mMC3R, Schild analysis, cAMP AlphaScreen [6]","agonist EC50, cAMP AlphaScreen [1] [µM]","antagonist Ki = 10^-(pA2), NDP-MSH at mMC4R, cAMP AlphaScreen [5] [nM]",Substance
,,,,7.8,> 100,> 100,> 100,50,3.3,6.2,,,Ac-[d2Nal]R[2Nal][dK]-NH2
,,,,8.3,> 100,> 100,> 100,65,0.4,6.9,,,Ac-DPhe(pI)-Arg-DNal(2’)-Arg-NH2 (peptide)
45,35,25,,7.6,,,> 100,,,,,,Ac-[dPhe(4-I)]RW[d2Nal]-NH2
40,30,40,,,,,> 100,,,5.7,,,Ac-[d2Nal]RW[d2Nal]-NH2
,,,,,> 100,> 100,> 100,,,6.8,> 100,,Ac-[dPhe(4-I)]R[2Nal][dK]-NH2
40,20,,,8.3,,> 100,> 100,,,6.8,,,Ac-[d2Nal]RWR-NH2
55,,,,< 5.5,> 100,> 100,> 100,,,< 5.5,,,Ac-DNal(2’)-DNal(2’)-DNal(2’)-DLys-NH2 (peptide)
20,,,,< 5.5,> 100,> 100,> 100,,,< 5.5,,,Ac-DNal(2’)-DNal(2’)-DPhe(pI)-DLys-NH2 (peptide)
,,,,7.7,> 100,> 100,> 100,,,5.5,> 100,,Ac-[d2Nal]RW[dK]-NH2
65,,,,6.6,> 100,> 100,> 100,,,5.7,,,Ac-DPhe(pI)-DNal(2’)-Trp-DLys-NH2 (peptide)
40,,20,50,,> 100,,,,,,,,Ac-DPhe(pI)-DNal(2’)-Nal(2’)-DLys-NH2 (peptide)
25,,,,< 5.5,> 100,> 100,,,,< 5.5,,,Ac-DNal(2’)-DNal(2’)-DPhe(pI)-Arg-NH2 (peptide)
40,,,,,> 100,> 100,0.13,,,,,,Ac-DPhe(pI)-DNal(2’)-DPhe(pI)-Arg-NH2 (peptide)
,30,40,40,6.5,,,,,,6.1,,,Ac-DNal(2’)-Arg-DPhe(pI)-DNal(2’)-NH2 (peptide)
35,,,,6.3,> 100,> 100,> 100,,,,,,Ac-DPhe(pI)-DNal(2’)-DNal(2’)-DLys-NH2 (peptide)
